Where a chain is given by its changes, count along the chain named. Names and notes keep the numbering of the source. One block for each binder: values may come before it.
Legend:
[1] = molecular target: T1, recombinant protein of the hTROP-2 extracellular region (human, UniProt P09758 27-263); experiment: antigen-coated ELISA, plate coated with 0.5 µg/ml hTROP-2 extracellular region
T1 construct: produced with baculovirus, purified on Ni Sepharose; also called hTROP-2 EC; hTROP-2-EC-His; not shown: C-terminal myc-His tag from pcDNA4/myc-His A
T1 sequence: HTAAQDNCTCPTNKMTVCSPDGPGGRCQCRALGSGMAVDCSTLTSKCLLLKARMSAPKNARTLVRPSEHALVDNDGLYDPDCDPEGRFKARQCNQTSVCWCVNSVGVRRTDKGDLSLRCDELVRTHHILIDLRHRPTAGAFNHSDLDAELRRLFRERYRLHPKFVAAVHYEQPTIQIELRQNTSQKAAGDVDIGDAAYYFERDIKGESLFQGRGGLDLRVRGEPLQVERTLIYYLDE
Protocol: (§1) Furthermore, antigen affinity was also examined by an ELISA method. ELISA was carried out using an ELISA plate which was coated with the recombinant protein of the hTROP-2 extracellular region as described in Example 3. Specifically, a 96-well plate (BD FALCON) was coated with a 50 μl/well recombinant protein of a hTROP-2 extracellular region that had been diluted with PBS to 0.5 μg/ml (at 4° C. overnight). Thereafter, the resultant was washed with a washing buffer (PBS containing 0.05% Tween 20), and a blocking buffer (PBS containing 2% skim milk and 0.05% Tween 20) was then added thereto (200 μl/well) to block it (at room temperature for 1 hour). The resultant was washed with a washing buffer. […] The obtained dilution samples were each added in an amount of 50 μl/well to the above-described ELISA plate (at room temperature for 2 hours). […] After the mixture had been washed with a washing buffer, a TMB (3,3′,5,5′-tetramethylbenzidine: SIGMA) substrate solution was added (50 μl/well) to the resultant to carry out a color reaction. Then, 1 M sulfuric acid (25 μl/well) was added to the reaction product to terminate the reaction. Using Microplate reader Model 550 (BioRad), an absorbance at 450 nm was measured with an absorbance at 655 nm used as a reference.

[2] = molecular target: T2, recombinant hTACSTD2-Fc-His protein (Creative BioMart) (human, UniProt P09758 27-274, limits assumed); experiment: low-density antigen-coated ELISA, plate coated with 0.1 µg/mL hTACSTD2-Fc-His
T2 construct: bought protein; also called hTROP-2 (low-density antigen-coated ELISA); not shown: Fc part of the bought fusion protein; not described; His tag
T2 sequence: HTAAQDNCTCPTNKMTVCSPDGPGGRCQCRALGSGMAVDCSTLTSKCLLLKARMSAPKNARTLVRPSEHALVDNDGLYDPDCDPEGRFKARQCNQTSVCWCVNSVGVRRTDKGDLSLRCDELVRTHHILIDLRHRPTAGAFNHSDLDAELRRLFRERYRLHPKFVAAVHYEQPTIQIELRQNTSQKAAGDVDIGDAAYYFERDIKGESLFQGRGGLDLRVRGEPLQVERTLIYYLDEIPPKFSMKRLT
Protocol: as §1, with “Specifically, a 96-well plate (BD FALCON) was coated with a 50 μl/well recombinant protein of a hTROP-2 extracellular region that had been diluted with PBS to 0.5 μg/ml (at 4° C. overnight).” left out

[3] = molecular target: T2, recombinant hTACSTD2-Fc-His protein …; experiment: low-density antigen-coated ELISA, plate coated with 0.1 µg/mL hTACSTD2-Fc-His, purified antibodies; HuK5-70 (humanized antibody); low-density ELISA, 0.1 µg/mL hTROP-2 coat
[4] = molecular target: T1, recombinant protein of the hTROP-2 …; experiment: monovalent ELISA: antibody captured by anti-human IgG Fc, hTROP-2 EC titrated in solution, detected with anti-His
Protocol: Thereafter, coating was carried out at 4° C. overnight. Thereafter, the reaction product was washed with a washing buffer (PBS containing 0.05% Tween 20), and a blocking buffer (PBS containing 2% skim milk and 0.05% Tween 20) was then added thereto (200 μL/well) to block it (at room temperature for 1 hour). The resultant was washed with a washing buffer. […] The mixture was left at rest at room temperature for 1 hour, and the reaction product was then washed with a washing buffer. The recombinant protein of the hTROP-2 extracellular region described in Example 3 (hTROP-2 EC) was diluted with an ELISA buffer to prepare samples with a concentration range from 5 μg/mL to a series of three-fold dilutions (10 samples). The thus obtained sample was added in each amount of 50 μL/well to the plate. The mixture was left at rest at room temperature for 1 hour, and the reaction product was then washed with a washing buffer. […] The obtained mixture was left at rest at room temperature for 1 hour, and it was then washed with a washing buffer. […] The obtained mixture was left at rest at room temperature for 1 hour, and it was then washed with a washing buffer. […] Using Microplate reader Model 550 (BioRad), an absorbance at 450 nm was measured with an absorbance at 655 nm used as a reference.

[5] = molecular target: T2, recombinant hTACSTD2-Fc-His protein …; experiment: low-density antigen-coated ELISA, plate coated with 0.1 µg/mL hTACSTD2-Fc-His, purified antibodies; HuK5-70-2 (R44G mutant); low-density ELISA, 0.1 µg/mL hTROP-2 coat
[6] = molecular target: T3, human TROP-2 (hTROP-2) endogenously expressed on the cell surface of human cancer cell lines (human, UniProt P09758 27-323); experiment: FACS on PK-59 cells, 0.1 µg antibody
T3 construct: also called TACSTD2; PK-59 cells
T3 sequence: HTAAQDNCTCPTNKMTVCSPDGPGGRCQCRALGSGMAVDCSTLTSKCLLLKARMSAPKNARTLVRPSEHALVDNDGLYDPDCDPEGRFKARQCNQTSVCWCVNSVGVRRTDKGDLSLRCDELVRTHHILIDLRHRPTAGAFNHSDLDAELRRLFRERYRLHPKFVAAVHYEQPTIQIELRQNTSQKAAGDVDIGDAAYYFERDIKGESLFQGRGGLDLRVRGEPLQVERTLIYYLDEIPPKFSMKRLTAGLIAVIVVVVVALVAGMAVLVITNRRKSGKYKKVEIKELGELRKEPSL
Protocol: (§2) Cancer cells were removed from a culture dish by a trypsin treatment, and a cell suspension was then prepared (cell density: 2×10⁶ cells/mL). An anti-hTROP-2 monoclonal antibody (0.1 μg) was added to 100 μL of the cell suspension, and they were then reacted at 4° C. for 20 minutes. The reaction solution was washed with PBS, and it was then reacted with PE-labeled anti-mouse IgG (BD Biosciences Pharmingen) (0.1 μg) (at 4° C. for 30 minutes). Thereafter, the resultant was analyzed by FACSCalibur (Becton, Dickinson and Company).
(§3) Subsequently, the reactivity of the generated anti-hTROP-2 monoclonal antibodies with human cancer cell lines (in which an hTROP-2 protein was endogenously expressed on the cell surface) was examined by FACS analysis.

[7] = molecular target: T3, human TROP-2 (hTROP-2) endogenously …; experiment: FACS on BxPC-3 cells, 0.1 µg antibody
Protocol: as §2, §3

[8] = molecular target: T4, mouse TROP-2 protein transiently expressed in CHO-K1 cells (mouse, UniProt Q8BGV3 25-317); experiment: FACS on CHO-K1 cells transiently expressing mouse TROP-2
T4 construct: whole, on cells
T4 sequence (looked up): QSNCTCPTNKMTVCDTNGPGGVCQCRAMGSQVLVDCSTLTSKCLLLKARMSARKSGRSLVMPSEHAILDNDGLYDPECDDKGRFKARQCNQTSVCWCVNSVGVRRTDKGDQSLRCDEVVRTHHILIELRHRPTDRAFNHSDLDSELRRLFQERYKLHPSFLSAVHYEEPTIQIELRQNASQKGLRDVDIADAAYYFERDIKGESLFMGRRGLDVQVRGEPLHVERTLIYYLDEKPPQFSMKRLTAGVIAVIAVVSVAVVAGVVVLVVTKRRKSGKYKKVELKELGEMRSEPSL
Excerpt: (§4) Specifically, each of an expression vector (mouse TROP-2-pcDNA3.1(+), furnished by the Institute of Molecular and Cellular Biosciences, the University of Tokyo) comprising the full-length cDNA of a mouse TROP-2 gene (GenBank accession No. NM_020047, Y08830), and an expression vector (pcDNA3.1-hEpCAM-myc/His) comprising the full-length cDNA of a human TROP-1/EpCAM gene (GenBank accession No. NM_002354), was transiently introduced into CHO-K1 cells, using Lipofectamine2000 reagent (Invitrogen). Thereafter, 24 to 48 hours later, the cells were removed from a culture dish by treating them with trypsin, and a cell suspension was then prepared. The thus prepared cell suspension was successively reacted with the produced anti-hTROP-2 monoclonal antibody (0.1 μg) and with PE-labeled anti-mouse IgG, and it was then analyzed by FACSCalibur.

[9] = molecular target: T5, human TROP-1/EpCAM protein transiently expressed in CHO-K1 cells (human, UniProt P16422 24-314); experiment: FACS on CHO-K1 cells transiently expressing human EpCAM/TROP-1
T5 construct: whole, on cells; also called human EpCAM/TROP-1; hEpCAM; not shown: C-terminal myc/His tag from pcDNA3.1-hEpCAM-myc/His
T5 sequence (looked up): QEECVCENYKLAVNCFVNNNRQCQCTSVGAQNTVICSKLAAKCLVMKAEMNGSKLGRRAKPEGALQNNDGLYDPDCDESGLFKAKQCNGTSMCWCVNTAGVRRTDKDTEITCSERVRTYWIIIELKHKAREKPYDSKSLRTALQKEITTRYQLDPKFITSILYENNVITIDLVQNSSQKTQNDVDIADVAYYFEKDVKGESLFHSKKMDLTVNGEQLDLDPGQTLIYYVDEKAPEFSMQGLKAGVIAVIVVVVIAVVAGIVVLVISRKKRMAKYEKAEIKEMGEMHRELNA
Excerpt: as §4

- EC50 [1]: 0.027 µg/mL
B1: humanized T6-16 antibody HuT6-16-1 (antibody, V domains shown)
VH: QVQLVQSGAEVKKPGASVKVSCKASGYTFTDYNMHWVRQAPGQGLEWIGYIYPYNGGTGYNQRFKSRATMTVDKSTSTAYMELRSLRSDDTAVYYCAREDYGSSPSYAMDYWGQGTMVTVSS
VL: DIVMTQSPLSLPVTPGEPASISCRSSQSLVHGNGNTYLHWYLQKPGQSPQLLIYKVSNRFSGVPDRFSGSGSGTDFTLKISRVEAEDVGVYYCSQTTHVPTFGGGTKVEIK
notes: HuT6-16 VH1 with HuT6-16 VL; also called HuT6-16-1 antibody

- EC50 [1]: 0.027 µg/mL
- EC50 [2]: 0.049 µg/mL
B2: humanized T6-16 antibody HuT6-16-2 (antibody, V domains shown)
VH: B1 VH with K74T
VL: B1 VL
notes: HuT6-16 VH2 with HuT6-16 VL; also called HuT6-16-2 antibody

- EC50 [3]: 0.0334 µg/mL
- EC50 [1]: 0.022 µg/mL
- EC50 [2]: 0.222 µg/mL
- EC50 relative to that of the K5-70 antibody [2]: ~20 times
- EC50 [4]: 0.006 µg/mL
B3: humanized K5-70 antibody (HuK5-70) (antibody, V domains shown)
VH: QVQLVQSGAEVKKPGASVKVSCKASGYTFTIYWINWVRQAPGQRLEWIGNIYPSDSYTNYNQKFKDKATLTVDTSASTAYMELSSLRSEDTAVYYCTRTSMADYWGQGTLVTVSS
VL: EIVLTQSPATLSLSPGERATLSCRASQSIGTSIHWYQQKPGQAPRLLIKYASESISGIPARFSGSGSGTDFTLTISSLEPEDFAVYYCQQSNSWPFTFGQGTKVEIK
notes: human IgG1 / human kappa constant regions from the vectors pFUSE-CHIg-hG1 and pFUSE2-CLIg-hk; also called HuK5-70 antibody

- EC50 [5]: 0.0114 µg/mL
B4: HuK5-70-2 antibody (HuK5-70 R44G mutant antibody) (antibody, V domains shown)
VH: B3 VH with R44G
VL: B3 VL
notes: also called HuK5-70 VH R44G; HuK5-70 VH2

- mean fluorescence intensity, times that with PE-labeled anti-mouse IgG alone [6]: 122 times
- mean fluorescence intensity, times that with PE-labeled anti-mouse IgG alone [7]: 121 times
- binding result [8]: no binding (tested: 0.1 µg antibody)
- binding result [9]: no binding (tested: 0.1 µg antibody)
B5: anti-hTROP-2 monoclonal antibody clone K5-116-2-1 (antibody, mouse IgG2a, V domains shown)
VH: QVQLQQPGAELVRPGASVKLSCKASGYTFTSYWITWVKQRPGQGLEWIGNIYPSDSYTNYNQKFRDKATLTVDKSSSTAYMQLSSPTSEDSAVYYCSALFDYWGQGTTLTVSS
VL: DILLTQSPAILSVSPGERVSFSCRASQSIGTSIHWYQQRTNGSPRLLIKYASESISGIPSRFSGSGSGTDFILSINSVESEDIADYYCQQSNSWPFTFGSGTKLEIK
notes: mouse IgG2a, hybridoma FERM BP-11253

- binding result [8]: no binding (tested: 0.1 µg antibody)
- binding result [9]: no binding (tested: 0.1 µg antibody)
B6: anti-hTROP-2 monoclonal antibody clone K5-107 (antibody, mouse IgG1, V domains shown)
VH: QVQLQQPGSELVRPGASVKLSCKASGYTFTSYWMHWVKQRHGQGLEWIGNIYPGGGYTNYDEKFKSKGTLTVDTSSSTAYMHLSSLTSEDSAVYYCTRSSVFDYWGQGTTLTVSS
VL: B5 VL with S28N, Y36F, I72T
notes: mouse IgG1, hybridoma FERM BP-11252

Source: patent publication US20160333110A1 (CHIOME BIOSCIENCE, published 2016)
